Test results reported in patent publication US12337037B2, “Taxol conjugate compounds, pharmaceutical compositions comprising the same, and methods for their use” (N1 Life, Inc, priority 2021, dated 2025).

Columns and labels:
[1] = Stability in plasma, human; assay type: in vitro ADME; conditions: for half-life: 37° C., read-out: Mean T1/2 (converted)
Protocol: (§1) Working solutions of test compounds were prepared in PBS (pH 7.4). Propantheline was used as positive control for human, monkey, dog and mouse plasma in the assay. Mevinolin was used as positive control for rat plasma in this assay. 1 mM propantheline working solution was prepared in acetonitrile. 1 mM mevinolin working solution was prepared in DMSO. Incubation buffer of 475 μL plasma for each cell was added into the incubation plate and pre-warmed at 37° C. for 15 minutes. After the pre-incubation, 25 μL of working solution (test compounds or control compounds) was spiked to plasma. For Compound 5 and Compound 3, the final concentration of organic concentration was 0%. For Taxol, the final concentration of organic solvents was 0.25%. The assay was performed in duplicate. The reaction samples were incubated at 37° C. Aliquots of 50 μL were taken from the reaction samples at 0, 0.25, 0.5, 1, 2, 4, 6, 8 and 24 hours. The reactions were stopped by the addition of 450 μL of ice-cold quench solution (methanol with 2% FA containing internal standards). All samples were vortexed for 10 minutes, following by centrifugation at 3,220 g for 30 minutes to precipitate proteins. 100 μL of the supernatant from each well was transferred to a new plate. The supernatant was diluted with ultrapure water. Samples were analyzed by LC-MS/MS. All calculations were carried out using Microsoft Excel. Peak area ratios were determined from extracted ion chromatograms. Percent compounds remaining at each time point were calculated by the following equation: Remaining Percentaget min(%)=Peak Area Ratiot min/Peak Area Ratio0 min×100
(§2) Peak Area Ratiot min is peak area ratio of control and test compounds at t min; and
(§3) Peak Area Ratio0 min is peak area ratio of control and test compounds at zero time point.
(§4) The slope value, k, was determined by linear regression of the natural logarithm of the remaining percentage of the parent drug vs. incubation time curve.
(§5) The in vitro half-life (in vitro t1/2) was determined from the slope value: in vitro t1/2=(0.693/k)

[2] = Stability in plasma, mouse; assay type: in vitro ADME; conditions: for half-life: 37° C., read-out: Mean T1/2 (converted)
Protocol: as §1, §2, §3, §4, §5

[3] = In-life pharmacokinetics, single IP dose; conditions: CD-1 mice
Protocol: General Procedure: A single-dose study was conducted in CD-1 mice. Groups (12 animals in each group) were administered an intraperitoneal (IP) dose of either Taxol (10 mg/kg), Compound 3 (38.4 mg/kg), or Compound 5 (38.4 mg/kg). Serial or terminal plasma samples (n=3 per timepoint) were collected from study animals at pre-determined times post-dose. Each mouse was serial bled 2 times (orbital bleeds) and one terminal bleed. The samples were collected in pre-chilled tubes for all steps. Upon completion of the in-life phase, the samples were analyzed using LC-MS/MS.
Assay Procedures: For analysis of analytes in mouse plasma, a 50.0 μL aliquot of each study sample was extracted with protein precipitation using 200 μl of 5% formic acid in methanol. Internal standards were added by adding 25.0 μL methanol containing 250 ng/mL tolbutamide and 1000 ng/mL Taxol-d5.
For Compound 5 and Compound 3 analysis, following centrifugation at 4000 rpm for 10 minutes, 150 μL of the supernatant was transferred to a clean 96 well collection plate for LC-MS/MS analysis.
For Taxol analysis, following centrifugation at 4000 rpm for 10 minutes, 75.0 μL of the supernatant was transferred into a clean 96 well collection plate containing 75.0 μL of deionized water. The plate was then capped and vortexed at 1650 rpm for 3 minutes prior to LC-MS/MS analysis.
Preparation of Standards and Quality Controls: Calibration standards of Compound 3 in mouse plasma were prepared on wet ice in blank mouse plasma at concentrations of 5.00, 10.0, 50.0, 100, 200, 250, 450, and 500 ng/mL. The low quality control ([LQC], 15.0 ng/mL), medium quality control ([MQC], 120 ng/mL) and high quality control ([HQC], 400 ng/mL) were prepared in blank mouse plasma.
Calibration standards of Taxol in mouse plasma were prepared on wet ice in blank mouse plasma at concentrations of 2.50, 5.00, 25.0, 125, 625, 1250, 2250, and 2500 ng/mL. The LQC, (7.50 ng/mL), MQC (120 ng/mL), and HQC (2000 ng/mL) were prepared in blank mouse plasma.
Sample Analyses: Mouse plasma samples were received from the in-life and were stored in a freezer set to −80° C.
Study samples were analyzed in 2 batches. At a minimum, each batch included the following: one set of calibration standards, a matrix blank (blank mouse plasma), a control-zero sample (blank mouse plasma with internal standard), and duplicate QC samples at 3 concentration levels (low, medium, and high) in addition to the study samples. Within each batch, the study samples were bracketed by calibration standards or QC samples.
Data Acquisition and Processing: The LC-MS/MS data acquisition was performed on an Agilent 1290 Infinity II HPLC system coupled with an AB SCIEX API 6500+ mass spectrometer. Chromatograms were integrated using Analyst 1.6.3 software. A weighted (1/x2, x=concentration) linear regression was used to generate the calibration curves and the regression was performed using Analyst 1.6.3 software. The concentration of the analyte in the samples was calculated using the peak area ratios of analyte to internal standard based on the calibration curve.

[4] = system: human gastric cancer (NUGC-4) cells; assay: Efficacy against gastric cancer; assay type: in vivo, mice; conditions: NUGC-4 model; 9.6 mg/kg QD5 (days 0, 5, 10)
Protocol: The fluorescence area of the tumor was measured over the course of the study (FIG. 13). After approximately Day 15 in the mice administered PBS, the formation of bloody ascites blocked the fluorescence reading. […] FIG. 14 is a graph comparing the fluorescence area on Day 21 of the study of the mice administered vehicle and the mice administered Compound 3. FIG. 15 is a graph comparing the tumor weight of the mice administered vehicle and the mice administered Compound 3 on Day 21.

SKOV-3-GFP cells = assay: Elimination of ascites; assay type: in vivo, mice; conditions: SKOV-3-GFP cells injected into the peritoneal cavity; Compound 3 9.6 mg/kg, Taxol 10 mg/kg
Protocol: Following the procedure described in Example 5, mice injected with SKOV-3-GFP cells (a cell suspension of 6×10^6/120 μL/mouse or 8×10^6/120 μL/mouse injected into the peritoneal cavity) were also studied for the formation of ascites. Mice were administered vehicle (PBS), Taxol (10 mg/kg), or Compound 3 (9.6 mg/kg).
FIG. 16 and FIG. 18 are images of mice administered vehicle following an injection of SKOV-3-GFP cells (6×10^6/120 μL/mouse or 8×10^6/120 μL/mouse, respectively). […] FIG. 17A and FIG. 17B are images of two mice administered Compound 3 (9.6 mg/kg, equimolar to 2.5 mg/kg Taxol) following an injection of SKOV GFP cells (6×10^6/120 μL/mouse).

[5] = analyte: Taxol, IP single dose, Cmpd 3 / Cmpd 5 38.4 mg/kg, Taxol 10 mg/kg
[6] = analyte: the administered conjugate, 38.4 mg/kg IP single dose

For `CC(=O)N[C@@H](CSSCCCC(=O)OC(C(=O)O[C@H]1C[C@@]2(O)[C@@H](OC(=O)c3ccccc3)[C@@H]3[C@]4(OC(C)=O)CO[C@@H]4C[C@H](O)[C@@]3(C)C(=O)[C@H](OC(C)=O)C(=C1C)C2(C)C)[C@@H](NC(=O)c1ccccc1)c1ccccc1)C(=O)N[C@H](CCCNC(=N)N)C(=O)N[C@H](CCCNC(=N)N)C(=O)N[C@H](CCCNC(=N)N)C(=O)N[C@H](CCCNC(=N)N)C(=O)N[C@H](CCCNC(=N)N)C(=O)N[C@H](CCCNC(=N)N)C(=O)N[C@H](CCCNC(=N)N)C(=O)N[C@H](CCCNC(=N)N)C(N)=O` (stereo partly drawn) [Compound 3, Ac-L-Cysteine (paclitaxel-4-mercaptobutanoate)-D-Arginine8-NH2], the “Percent Increase of T1/2, Compound 3 over Compound 5” value [1] was 18.45%, the half-life [1] was 1.22 h and the “Percent Increase of T1/2, Compound 3 over Compound 5” value [2] was 34.18%. The half-life [2] was 1.06 h, the “Taxol/Cmpd AUC Ratio” value ([3]; 38.4 mg/kg IP single dose) was 81.84 and the “AUC ratio Taxol/compound, times higher than AUC ratio of Taxol/Compound 5” value ([3]; 38.4 mg/kg IP) was 20 times. For the same molecule, the “T1/2 of released Taxol, longer than that of Taxol released from Compound 5” value ([3]; 38.4 mg/kg IP) was 33.3%, the “AUMC0-t (h*h*nmol/L)” value [3, 5] was 72,372.302 h*h*nmol/L and the “AUMC0-t (h*h*nmol/L)” value [3, 6] was 26.304 h*h*nmol/L. The “fluorescence area of the tumor over the course of the study (FIG. 13)” value [4] was “fluorescence decreased over the course of the study” and the formation of ascites (SKOV-3-GFP cells) was “No bloody ascites were observed”.

In the case of `CC(=O)N[C@H](CSSCCCC(=O)O[C@@H](C(=O)O[C@H]1C[C@@]2(O)[C@@H](OC(=O)c3ccccc3)[C@@H]3[C@]4(OC(C)=O)CO[C@@H]4C[C@H](O)[C@@]3(C)C(=O)[C@H](OC(C)=O)C(=C1C)C2(C)C)[C@@H](NC(=O)c1ccccc1)c1ccccc1)C(=O)N[C@H](CCCNC(=N)N)C(=O)N[C@H](CCCNC(=N)N)C(=O)N[C@H](CCCNC(=N)N)C(=O)N[C@H](CCCNC(=N)N)C(=O)N[C@H](CCCNC(=N)N)C(=O)N[C@H](CCCNC(=N)N)C(=O)N[C@H](CCCNC(=N)N)C(=O)N[C@H](CCCNC(=N)N)C(N)=O` [Compound 5, Ac-D-Cysteine (paclitaxel-4-mercaptobutanoate)-D-Arginine8-NH2], the half-life [1] is reported as 1.03 h, the half-life [2] is reported as 0.79 h and the “Taxol/Cmpd AUC Ratio” value ([3]; 38.4 mg/kg IP single dose) is reported as 3.942. For the same molecule, the “Cmax of parent compound, fold higher than that of Compound 3” value ([3]; 38.4 mg/kg IP) was “over 100 fold”, the “AUMC0-t (h*h*nmol/L)” value [3, 5] was 3274.99 h*h*nmol/L and the “AUMC0-t (h*h*nmol/L)” value [3, 6] was 830.67 h*h*nmol/L.

In the case of `CC(=O)O[C@H]1C(=O)[C@@]2(C)[C@H]([C@H](OC(=O)c3ccccc3)[C@]3(O)C[C@H](OC(=O)[C@H](O)[C@@H](NC(=O)c4ccccc4)c4ccccc4)C(C)=C1C3(C)C)[C@]1(OC(C)=O)CO[C@@H]1C[C@@H]2O` [Taxol, paclitaxel], the formation of ascites (SKOV-3-GFP cells) is reported as “formation of malignant as cites”.
